Reference: PMC2132596

What was measured:
[1] = molecular target: human P-cadherin–Fc fusion protein (human) (UniProt P22223); test: cell adhesion assay
[2] = molecular target: purified human IgG1 (human); test: cell adhesion assay

Chain of human P-cadherin–Fc fusion protein (human) (P22223 108-654): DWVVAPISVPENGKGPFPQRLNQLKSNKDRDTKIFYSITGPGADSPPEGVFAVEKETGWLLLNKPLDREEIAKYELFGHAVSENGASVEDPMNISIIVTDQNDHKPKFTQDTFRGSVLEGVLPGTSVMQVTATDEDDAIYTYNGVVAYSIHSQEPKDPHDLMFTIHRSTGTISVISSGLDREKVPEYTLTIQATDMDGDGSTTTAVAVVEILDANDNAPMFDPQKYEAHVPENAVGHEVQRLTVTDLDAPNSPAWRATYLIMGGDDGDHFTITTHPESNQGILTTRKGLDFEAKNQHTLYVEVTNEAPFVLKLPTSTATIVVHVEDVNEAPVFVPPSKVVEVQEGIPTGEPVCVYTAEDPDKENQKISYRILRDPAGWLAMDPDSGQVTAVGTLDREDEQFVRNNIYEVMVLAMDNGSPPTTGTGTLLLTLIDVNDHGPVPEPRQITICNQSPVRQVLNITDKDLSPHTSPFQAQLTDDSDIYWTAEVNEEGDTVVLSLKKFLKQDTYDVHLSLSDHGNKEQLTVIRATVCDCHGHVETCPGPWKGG

Substance | fold more coated fusion protein needed than of E-cadherin–Fc [1] [fold] | percent of cells adhering at 500 ng/well [1] [%] | percent of cells adhering [2] [%]
integrin αEβ7 of cultured human intestinal intraepithelial lymphocytes (from UniProt P38570 19-1179; P26010 20-798) (complex) | > 100 | 40 | 
αEβ7 on JY′ cells transfected with full-length human αE (JY′-αE) (from UniProt P38570 19-1179; P26010 20-798) (complex) |  |  | < 3
